Experimental findings from publication PMC4403447 are described below.

For test [1], the target named is Sti1 G193C–G309C N435A, labelled with ATTO 532 and ATTO 647 (S. cerevisiae) (UniProt P15705).
In test [2] the target is Sti1 G193C–G309C, labelled with ATTO 532 and ATTO 647 (S. cerevisiae) (UniProt P15705).
Test [3] concerns the target Sti1 G193C–G309C N39A, labelled with ATTO 532 and ATTO 647 (S. cerevisiae) (UniProt P15705).

yHsp70 (Ssa1), P10591 1-642 (natural protein; ATTO 532 and ATTO 647 on the two cysteines (labelled stochastically)), sequence (P10591 whole entry): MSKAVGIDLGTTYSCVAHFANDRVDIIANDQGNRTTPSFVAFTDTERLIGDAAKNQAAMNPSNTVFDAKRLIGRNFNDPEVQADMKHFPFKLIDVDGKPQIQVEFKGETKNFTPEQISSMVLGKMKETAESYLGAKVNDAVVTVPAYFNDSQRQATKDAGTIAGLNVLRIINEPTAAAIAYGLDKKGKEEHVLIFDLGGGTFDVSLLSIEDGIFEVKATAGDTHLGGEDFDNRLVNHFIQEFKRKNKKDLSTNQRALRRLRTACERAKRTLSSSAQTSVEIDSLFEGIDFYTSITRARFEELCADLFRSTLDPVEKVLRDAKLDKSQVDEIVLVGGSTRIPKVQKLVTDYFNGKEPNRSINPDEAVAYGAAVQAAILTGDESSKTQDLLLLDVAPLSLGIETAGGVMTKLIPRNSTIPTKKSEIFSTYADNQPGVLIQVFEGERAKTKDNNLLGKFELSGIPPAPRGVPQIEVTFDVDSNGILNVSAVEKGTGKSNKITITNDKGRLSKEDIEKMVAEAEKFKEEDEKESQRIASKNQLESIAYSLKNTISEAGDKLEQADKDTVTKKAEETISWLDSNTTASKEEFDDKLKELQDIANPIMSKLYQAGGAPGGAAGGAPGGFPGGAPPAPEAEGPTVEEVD
Sti1 G193C–G309C N435A, labelled with ATTO 532 and ATTO 647 (S. cerevisiae), sequence (P15705 whole entry G193C/G309C/N435A): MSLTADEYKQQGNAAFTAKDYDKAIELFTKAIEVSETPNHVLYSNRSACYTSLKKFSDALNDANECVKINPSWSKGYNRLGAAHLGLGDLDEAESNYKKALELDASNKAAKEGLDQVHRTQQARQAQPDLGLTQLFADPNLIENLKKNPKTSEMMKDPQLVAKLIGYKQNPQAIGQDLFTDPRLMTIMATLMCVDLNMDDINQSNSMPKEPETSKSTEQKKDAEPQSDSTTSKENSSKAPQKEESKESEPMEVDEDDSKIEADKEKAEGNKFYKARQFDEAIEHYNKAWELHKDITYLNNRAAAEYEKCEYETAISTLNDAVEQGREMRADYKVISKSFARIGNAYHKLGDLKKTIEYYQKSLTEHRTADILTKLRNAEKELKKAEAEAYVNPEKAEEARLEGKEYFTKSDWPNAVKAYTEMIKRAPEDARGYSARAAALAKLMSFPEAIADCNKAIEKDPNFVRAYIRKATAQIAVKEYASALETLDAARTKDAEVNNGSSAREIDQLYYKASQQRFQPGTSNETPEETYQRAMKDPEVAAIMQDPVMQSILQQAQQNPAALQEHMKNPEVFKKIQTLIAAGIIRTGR
Sti1 G193C–G309C N39A, labelled with ATTO 532 and ATTO 647 (S. cerevisiae), sequence (P15705 whole entry N39A/G193C/G309C): as the sequence (P15705 whole entry G193C/G309C/N435A) above, with N39A, A435N counted along it
Sti1 G193C–G309C, labelled with ATTO 532 and ATTO 647 (S. cerevisiae), sequence (P15705 whole entry G193C/G309C): as the sequence (P15705 whole entry G193C/G309C/N435A) above, with A435N counted along it

For the substance “yHsp90 (Hsp82), P02829 1-709 (natural protein; ATTO 532 and ATTO 647 on the two cysteines (labelled stochastically))”, the dynamic traces (%) in surface-based spFRET (TIRF) of Sti1 encapsulated in vesicles with 10 μM Hsp90; 17 without Hsp came out at 26% in test [1] and 31% in test [2]. This substance also displayed a dynamic traces (%) in surface-based spFRET (TIRF) of Sti1 encapsulated in vesicles with 10 μM Hsp90; 13 without Hsp in test [3] of 27%.
In the case of “yHsp70 (Ssa1), P10591 1-642 (natural protein; ATTO 532 and ATTO 647 on the two cysteines (labelled stochastically))”, the dynamic traces (%) in surface-based spFRET (TIRF) of Sti1 encapsulated in vesicles with 25 μM Hsp70; 17 without Hsp in test [1] was 15%; in test [2], 28%. Further, the dynamic traces (%) in surface-based spFRET (TIRF) of Sti1 encapsulated in vesicles with 25 μM Hsp70; 13 without Hsp in test [3] turned out to be 27%.
